Data as given in article PMC8531451, “1,1'-Carbonyldiimidazole-copper nanoflower enhanced collapsible laser scribed graphene engraved microgap capacitive aptasensor for the detection of milk allergen”.

Biological target: T1, beta-lactoglobulin (bovine, UniProt P02754 17-178)
T1 sequence: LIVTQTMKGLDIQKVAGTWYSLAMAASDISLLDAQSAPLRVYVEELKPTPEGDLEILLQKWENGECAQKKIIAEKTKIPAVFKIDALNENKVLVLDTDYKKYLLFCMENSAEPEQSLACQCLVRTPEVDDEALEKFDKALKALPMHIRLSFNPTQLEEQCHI
Experiment: non-faradaic capacitive aptasensor; CDI-Cu nanoflower/LSG microgap; linear 1 ag/ml-100 fg/ml, LOD 1 ag/ml; Sensor: 10 mM PBS pH 7.4, target incubated 10 min; aptamer folded in 1 mM MgCl2, 10 mM PBS (90 °C 5 min); ELASA: coating at 4 °C overnight, 2% BSA block, PBS washes
Conditions: protein: commercial; chain copies: 2; label: biotin; 3' A tail of aptamer paired with T20 oligolinker; aptamer part single-stranded

B1: beta-lactoglobulin aptamer with 3' A tail, annealed to biotinylated T20 oligolinker (mixed)
DNA 1: ATACCAGCTTATTCAATTCGACGATCGGACCGCAGTACCCACCCACCAGCCCCAACATCATGCCCATCCGTGTGTGAGATAGTAAGTGCAATCTAAAAAAAAAAAAAAAAAAAAAAAA
DNA 2: TTTTTTTTTTTTTTTTTTTT
modifications: 5' biotin (5Biosg) on oligolinker S1
- binding result: binds
